{"source": "paper PMC7617732", "about": "(Science translational medicine, 2024)", "target": "T1, 3FTx-L15 (recombinant long-chain three-finger α-neurotoxin variant) (Ophiophagus hannah (king cobra), long …)", "T1 chain": "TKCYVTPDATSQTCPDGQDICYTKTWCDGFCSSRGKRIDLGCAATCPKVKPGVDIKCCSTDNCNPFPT"}
{"binder": "95Mat2 (antibody, V domains shown) VH: QVQLVQSGAEVKKPGSSVKVSCKASGGTFSSYAISWVRQAPGQGLEWMGGIIPIFGTANYAQKFQGRVTITADESTSTAYMELSSLRSEDTAVYYCARIPLVWYESGPYESGVFDYWGQGTLVTVSS VL: not shown", "values": [{"measurement": "Kd", "result": 0.1, "unit": "nM"}]}
{"binder": "95Mat3 (antibody, V domains shown) VH: QVQLVQSGAEVKKPGSSVKVSCKASGGTFSSYAISWVRQAPGQGLEWMGGIIPIFGPANYAQKFQGRVTITADESTSTAYMELSSLRSEDTAVYYCARIPLVWYESGPYESGVFDYWGQGTLVTVSS VL: not shown", "values": [{"measurement": "binding result", "result": "binds"}]}
{"binder": "95Mat6 (antibody, V domains shown) VH: QVQLVQSGAEVKKPGSSVKVSCKASGGTFSSYAISWVRQAPGQGLEWMGGIIPIFGHANYAQKFQGRVTITADESTSTAYMELSSLRSEDTAVYYCARIPLIWYESGPYESGVFDYWGQGTLVTVSS VL: not shown", "values": [{"measurement": "Kd", "result": 0.103, "unit": "nM"}]}
{"binder": "95Mat4 (antibody, V domains shown) VH: QVQLVQSGAEVKKPGSSVKVSCKASGGTFSSYAISWVRQAPGQGLEWMGGIIPIFGTANYAQKFQGRVTITADESTSTAYMELSSLRSEDTAVYYCARIPLHWYESGPYESGVFDYWGQGTLVTVSS VL: not shown", "values": [{"measurement": "binding result", "result": "binds"}]}
